Experimental data taken from publication PMC3716654, “The UmuC subunit of the E. coli DNA polymerase V shows a unique interaction with the β-clamp processivity factor” (BMC Structural Biology, 2013).
Where no end group is shown, it is not given here. Dylight649 = Dylight649 fluorophore attached through the cysteine

Molecular target: T1, E. coli β-clamp processivity factor (E. coli, UniProt P0A988 1-366)
T1 construct: DNA polymerase III β subunit (β sliding clamp, dnaN), E. coli, full length, from plasmid pACYC11-dnaN; residues up to Leu-366 are named; The last residue of the hexa-histidine tag is modelled in both subunits; also called sliding clamp; not shown: His6, N-terminal, kept
T1 sequence (P0A988 whole entry): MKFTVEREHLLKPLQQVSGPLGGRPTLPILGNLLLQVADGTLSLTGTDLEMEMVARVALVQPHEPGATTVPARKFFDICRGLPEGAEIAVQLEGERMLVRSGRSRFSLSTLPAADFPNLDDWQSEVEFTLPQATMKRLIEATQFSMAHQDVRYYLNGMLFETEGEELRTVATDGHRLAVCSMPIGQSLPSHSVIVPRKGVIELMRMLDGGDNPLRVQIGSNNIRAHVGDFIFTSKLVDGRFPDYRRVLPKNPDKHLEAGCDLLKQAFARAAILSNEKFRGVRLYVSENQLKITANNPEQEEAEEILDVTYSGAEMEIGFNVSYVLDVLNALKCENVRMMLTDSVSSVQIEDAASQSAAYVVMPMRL
Assay: crystal structure; β-clamp/Dylight649-UmuC peptide complex purified by SEC, 15 mg/ml; crystallised in 200 mM calcium acetate, 200 mM MES pH 6.5, 14% PEG 6000, sitting drop, 12°C; 2.5 Å
Conditions: both partners purified

- binding result: binds
B1: Dylight649-UmuC synthetic peptide (Dylight649-C-QGVAQLNLFDD) (peptide)
peptide: C(Dylight649)QGVAQLNLFDD
notes: cysteine added to permit linkage of the chromophore; not a UmuC residue; 12-mer including the added N-terminal cysteine; Only 356-361 (chain D) and 357-361 (chain C) are ordered in the structure; also called Dylight649-Pol V synthetic peptide; UmuC peptide; source: synthetic peptide (Cambridge Peptides)
